Series [1] has as its target DBC1, Q8N163.
The target in series [2] is Fleur de Lys peptide (BIOMOL).
Series [3] has as its target T1, H3K9ac substrate (TARK(ac)STG).
T1 chain: TARKSTG

The record followed here is patent US20120164670.

Sequence of DBC1, Q8N163 (Q8N163 whole entry, looked up): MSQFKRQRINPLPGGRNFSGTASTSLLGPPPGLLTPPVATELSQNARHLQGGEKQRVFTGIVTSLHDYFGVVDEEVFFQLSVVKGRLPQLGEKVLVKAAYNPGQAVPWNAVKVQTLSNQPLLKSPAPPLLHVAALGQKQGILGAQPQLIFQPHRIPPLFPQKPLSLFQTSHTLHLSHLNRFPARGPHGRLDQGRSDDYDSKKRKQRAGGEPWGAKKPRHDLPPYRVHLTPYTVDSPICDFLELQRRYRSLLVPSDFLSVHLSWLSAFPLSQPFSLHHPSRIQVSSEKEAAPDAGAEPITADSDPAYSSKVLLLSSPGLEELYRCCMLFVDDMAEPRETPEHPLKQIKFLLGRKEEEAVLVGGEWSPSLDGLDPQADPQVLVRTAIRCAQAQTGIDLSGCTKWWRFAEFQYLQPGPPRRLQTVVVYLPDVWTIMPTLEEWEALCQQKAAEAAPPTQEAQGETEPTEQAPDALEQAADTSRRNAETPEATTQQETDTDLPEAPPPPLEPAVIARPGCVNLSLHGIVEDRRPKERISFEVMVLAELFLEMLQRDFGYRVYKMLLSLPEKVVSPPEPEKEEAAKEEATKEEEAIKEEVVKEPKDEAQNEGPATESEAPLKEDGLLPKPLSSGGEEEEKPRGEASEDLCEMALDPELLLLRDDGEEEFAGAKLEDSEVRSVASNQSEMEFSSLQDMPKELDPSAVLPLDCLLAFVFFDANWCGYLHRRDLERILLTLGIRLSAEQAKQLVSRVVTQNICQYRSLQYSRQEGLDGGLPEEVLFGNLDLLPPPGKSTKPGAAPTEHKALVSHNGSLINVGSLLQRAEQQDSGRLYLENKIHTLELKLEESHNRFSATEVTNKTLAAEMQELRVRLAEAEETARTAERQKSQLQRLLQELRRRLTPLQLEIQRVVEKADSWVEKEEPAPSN

B1: full-length human SIRT1 enzyme (protein)
chain: ADEAALALQPGGSPSAAGADREAASSPAGEPLRKRPRRDGPGLERSPGEPGGAAPEREVPAAARGCPGAAAAALWREAEAEAAAAGGEQEAQATAAAGEGDNGPGLQGPSREPPLADNLYDEDDDDEGEEEEEAAAAAIGYRDNLLFGDEIITNGFHSCESDEEDRASHASSSDWTPRPRIGPYTFVQQHLMIGTDPRTILKDLLPETIPPPELDDMTLWQIVINILSEPPKRKKRKDINTIEDAVKLLQECKKIIVLTGAGVSVSCGIPDFRSRDGIYARLAVDFPDLPDPQAMFDIEYFRKDPRPFFKFAKEIYPGQFQPSLCHKFIALSDKEGKLLRNYTQNIDTLEQVAGIQRIIQCHGSFATASCLICKYKVDCEAVRGDIFNQVVPRCPRCPADEPLAIMKPEIVFFGENLPEQFHRAMKYDKDEVDLLIVIGSSLKVRPVALIPSSIPHEVPQILINREPLPHLHFDVELLGDCDVIINELCHRLGGEYAKLCCNPVKLSEITEKPPRTQKELAYLSELPPTPLHVSEDSSSPERTSPPDSSVIVTLLDQAAKSNDDLDVSESKGCMEEKPQEVQTSRNVESIAEQMENPDLKNVGSSTGEKNERTSVAGTVRKCWPNRVAKEQISRRLDGNQYLFLPPNRYIFHGAEVYSDSEDDVLSSSSCGSNSDSGTCQSPSLEEPMEDESEIEEFYNGLEDEPDVPERAGGAGFGTDGDDQEAINEAISVKQEVTDMNYPSNKS
For B1, the “SIRT1 activity (PNC1-OPT assay, dose titration of DBC1, H3K9-L peptide substrate)” value in series [1] is on record as “DBC1 concentration inversely correlates with SIRT1 activity”. Besides, the “Km (PNC1-OPT nicotinamide assay, SIRT1 deacetylation)” value in series [2] is reported as “˜130.2 uM”. Moreover, in series [3], the “Km (stated in the kit protocol for the SIRT1 deacetylation reaction)” value is given as “final concentration=50 uM (Km)”.
